Results published in patent US6797812B2, “Caspase-14, an apoptotic protease, nucleic acids encoding and methods of use” (Thomas Jefferson University, priority 1997, dated 2004).

T1: mouse procaspase-14 (Mus musculus, UniProt O89094)
T1 construct: made in house
T1 sequence (O89094 1-257): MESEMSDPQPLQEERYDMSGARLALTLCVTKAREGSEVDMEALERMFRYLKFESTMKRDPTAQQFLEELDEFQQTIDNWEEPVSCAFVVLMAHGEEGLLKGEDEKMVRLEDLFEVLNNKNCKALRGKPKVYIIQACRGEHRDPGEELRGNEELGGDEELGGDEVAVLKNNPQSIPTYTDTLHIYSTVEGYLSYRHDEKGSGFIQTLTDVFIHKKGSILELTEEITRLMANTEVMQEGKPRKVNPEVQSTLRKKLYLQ

B1: procaspase-3: small prodomain executioner procaspase used as control (protein, UniProt P42574 1-277, looked up)
pro-form: MENTENSVDSKSIKNLEPKIIHGSESMDSGISLDNSYKMDYPEMGLCIIINNKNFHKSTGMTSRSGTDVDAANLRETFRNLKYEVRNKNDLTREEIVELMRDVSKEDHSKRSSFVCVLLSHGEEGIIFGTNGPVDLKKITNFFRGDRCRSLTGKPKLFIIQACRGTELDCGIETDSGVDDDMACHKIPVEADFLYAYSTAPGYYSWRNSKDGSWFIQSLCAMLKQYADKLEFMHILTRVNRKVATEFESFSFDATFHAKKQIPCIVSMLTKELYFYH
modifications: pro-form
notes: small prodomain executioner procaspase used as control
B2: procaspase-14: proenzyme of caspase-14, a cell death specific cysteine protease of the caspase family (mouse SEQ ID NO:2) (protein)
chain: KPDMESEMSDPQPLQEERYDMSGARLALTLCVTKAREGSEVDMEALERMFRYLKFESTMKRDPTAQQFLEELDEFQQTIDNWEEPVSCAFVVLMAHGEEGLLKGEDEKMVRLEDLFEVLNNKNCKALRGKPKVYIIQACRGEHRDPGEELRGNEELGGDEELGGDEVAVLKNNPQSIPTYTDTLHIYSTVEGYLSYRHDEKGSGFIQTLTDVFIHKKGSILELTEEITRLMANTEVMQEGKPRKVNPEVQSTLRKKLYLQ
B3: caspase-14: purified recombinant caspase-14 material containing small amount of active caspase-14 (protein)
chain: B2 chain
B4: TRAIL: cytotoxic ligand TRAIL (protein, UniProt P50591 1-281, looked up)
Tumor necrosis factor ligand …: MAMMEVQGGPSLGQTCVLIVIFTVLLQSLCVAVTYVYFTNELKQMQDKYSKSGIACFLKEDDSYWDPNDEESMNSPCWQVKWQLRQLVRKMILRTSEETISTVQEKQQNISPLVRERGPQRVAAHITGTRGRSNTLSSPNSKNEKALGRKINSWESSRSGHSFLSNLHLRNGELVIHEKGFYYIYSQTYFRFQEEIKENTKNDKQMVQYIYKYTSYPDPILLMKSARNSCWSKDAEYGLYSIYQGGIFELKENDRIFVSVTNEHLIDMDHEASFFGAFLVG

How the values were obtained:
mouse procaspase-14 = target: T1, mouse procaspase-14; test: Processing of 35S labeled procaspase-14 by Granzyme B and purified recombinant caspases; format: biochemical; conditions: Granzyme B 14 ng/μl or recombinant caspases 20 ng/μl, ICE buffer, 37° C., 1 h, FIG. 5B
Experimental: Upon expression in bacteria, all procaspases are known to autoprocess to various degrees to generate the mature caspase which is composed of the large and small subunits. The observed auto-activation in bacterial overexpression systems is probably mediated by overexpression-induced oligomerization. […] To test this possibility procaspase-14 was incubated with Granzyme B which is known to process several caspase proenzymes. In addition procaspase-14 was incubated with different purified recombinant caspases.
Processing of mouse procaspase-14 by Granzyme B and purified recombinant caspases was carried out under the following conditions: ^35S labeled procaspase-14 was incubated with purified Granzyme B (14 ng/μl) or the indicated purified recombinant caspases (20 ng/μl) in ICE buffer (25 mM Hepes, 1 mM EDTA, 5 mM DTT, 0.1% CHAPS, pH 7.5) at 37° C. for 1 h. The reactions were stopped by addition of an SDS-sample buffer and then the products were analyzed by SDS-PAGE and autoradiography.

[1] = Autoprocessing of procaspases overexpressed in bacteria (SDS-PAGE, Coomassie); format: biochemical; conditions: expressed in Escherichia coli, Talon-affinity purified, FIG. 5A
MCF-7 cells = test: Overexpression of procaspases in MCF-7 cells, morphological signs of apoptosis; format: cell-based; conditions: transient transfection, X-gal staining 30 h after transfection, FIG. 4
Excerpt: On the other hand overexpression of the large prodomain initiator procaspases such as procaspase-8 can induce apoptosis, due to their ability to undergo prodomain-mediated oligomerization. To test the ability of procaspase-14 to induce apoptosis in transfected cells, MCF-7 cells were transiently transfected with procaspase-14 in a PRSC lac-Z expression construct under the CMV promoter. Cells were also transfected with an empty vector or constructs encoding procaspase-3, -6, -8, or -10 as controls. The cells were stained with X-gal 30 h after transfection and examined for morphological signs of apoptosis The percentage of round blue apoptotic cells (mean±SD) were represented as a function of total blue cells under each condition (n≧3). SD was less than 5%.

[2] = tested on: S100 extracts from human embryonic kidney 293 cells; test: Cytochrome c dependent processing of procaspases in S100 extracts; format: biochemical; conditions: cytochrome c 50 ng/μl, dATP 1 mM, 30° C., 1 h, FIG. 6
Experimental: To determine if caspase-14 was activated by a way of Apaf-1 and caspase-9, cytochrome c dependent activation was tested. ^35S labeled procaspase-3 (FIG. 6, lanes 1 & 2), procaspase-7 (FIG. 6, lanes 3 & 4), or procaspase-14 (FIG. 6, lanes 5 & 6) were incubated with S100 extracts from human embryonic kidney 293 cells in the absence (−) or presence (+) of cytochrome c (50 ng/μl) and dATP (1 mM) in buffer A (20 mM Hepes, 10 mM KCl, 1.5 mM MgCl2, 1 mM EDTA, 1 mM EGTA, 1 mM DTT, 0.1 mM PMSF, pH 7.5) at 30° C. for 1 h. The reaction products were then analyzed by SDS-PAGE and autoradiography.

procaspase-7 = test: Processing of endogenous procaspase-7 in MCF-7-FAS cells after anti-Fas antibody or TRAIL; format: cell-based; conditions: treated for 3 h, FIG. 5C
Experimental: (§1) Since caspase-8 and -10 are initiator caspases that are activated by oligomerization of the death receptors (i.e., Fas, TRAIL-R) by their ligands or agonist antibodies, the possibility that procaspase-14 is processed in vivo after induction of apoptosis by anti-Fas antibody or the cytotoxic ligand TRAIL was tested. A mammalian expression construct encoding N-terminal T7-tagged procaspase-14 was transfected into MCF-7-FAS cells. The cells were treated 36 h after transfection with agonist anti-Fas antibody or TRAIL for 3 h. Cells were harvested and lysed by addition of SDS-sample buffer. The cellular proteins were analyzed by SDS-PAGE and then immunoblotted with an anti-T7 HRP-conjugated monoclonal antibody (FIG. 5C, left panel) to detect procaspase-14. The same samples were also immunoblotted with a polyclonal antibody (anti-Mch3α) that preferentially detects the proform of caspase-7 (FIG. 5C, middle panel), or a mixture of the anti-Mch3α antibody and CM-1 antibody that preferentially detects the processes fragments of caspase-7 (FIG. 5C, right panel) to detect the endogenous caspase-7. Pro indicates the proenzyme, LS indicates the large subunit and SS indicates the small subunit. […] The cleavage products of procaspase-14 were not clearly detectable probably due to loss of the epitope tag after processing of the small prodomain of procaspase-14 at Asp7 or Asp 17. […]

procaspase-14 = test: Processing of T7-tagged procaspase-14 in MCF-7-FAS cells after anti-Fas antibody or TRAIL; format: cell-based; conditions: treated 36 h after transfection for 3 h, FIG. 5C
Experimental: as §1

Row | Molecule | processing of procaspase-14 (mouse procaspase-14) | processing of the proenzyme on overexpression in bacteria [1] | induction of apoptosis (round blue apoptotic cells as a function of total blue cells) (MCF-7 cells) | further results
1 | Granzyme B: purified protease known to process several caspase proenzymes | significant amount of processing |  |  | 
2 | B1 |  | completely processes | unable to induce any significant amount of apoptosis | 
3 | B2 |  | no significant processing | unable to induce any significant amount of apoptosis | cleavage/activation in S-100 extracts activated by cytochrome c and dATP [2]: no cleavage/activation
4 | B3 | Some processing |  |  | 
5 | B4 |  |  |  | processing of procaspase-7 (decreased intensity of proenzyme band) (procaspase-7): able to induce processing; processing of procaspase-14 (decreased intensity of proenzyme band) (procaspase-14): able to induce processing
